Assay results taken from patent publication US20240010704A1, “CHIMERIC SENSOR PROTEIN AND METHODS OF USE THEREOF” (Universitaet Leipzig, priority 2020, published 2024).
Where a chain is given by its changes, count along the chain named. Each block holds one molecule with its values, some of them ahead of it.

What was measured:
[1] = target: T1, γ-secretase (Drosophila melanogaster, UniProt O02194); test: Luciferase reporter assay in S2 cells, pharmacological inhibition of γ-secretase activity by DAPT; format: cell-based; details: for reporter activity without DAPT vs. with 10 μM DAPT: FIG. 8C
T1 construct: endogenous in cells; host or cells: Drosophila S2 cells
T1 sequence (O02194 whole entry): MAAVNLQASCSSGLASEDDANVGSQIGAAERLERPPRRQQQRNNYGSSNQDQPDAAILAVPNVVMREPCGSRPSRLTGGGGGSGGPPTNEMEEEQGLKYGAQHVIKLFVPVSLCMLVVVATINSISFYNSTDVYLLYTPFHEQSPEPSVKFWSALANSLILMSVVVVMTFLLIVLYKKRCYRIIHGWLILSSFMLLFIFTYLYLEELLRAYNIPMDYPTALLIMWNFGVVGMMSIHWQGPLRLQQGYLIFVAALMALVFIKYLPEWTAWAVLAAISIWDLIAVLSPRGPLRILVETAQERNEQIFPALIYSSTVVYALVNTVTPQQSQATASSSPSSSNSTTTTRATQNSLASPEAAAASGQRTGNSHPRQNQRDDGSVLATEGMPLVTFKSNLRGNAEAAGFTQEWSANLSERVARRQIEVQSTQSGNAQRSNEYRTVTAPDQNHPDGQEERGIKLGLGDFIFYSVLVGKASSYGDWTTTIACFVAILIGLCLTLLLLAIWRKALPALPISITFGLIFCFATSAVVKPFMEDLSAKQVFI
T1 sequence (Q9VC27 23-695 partner): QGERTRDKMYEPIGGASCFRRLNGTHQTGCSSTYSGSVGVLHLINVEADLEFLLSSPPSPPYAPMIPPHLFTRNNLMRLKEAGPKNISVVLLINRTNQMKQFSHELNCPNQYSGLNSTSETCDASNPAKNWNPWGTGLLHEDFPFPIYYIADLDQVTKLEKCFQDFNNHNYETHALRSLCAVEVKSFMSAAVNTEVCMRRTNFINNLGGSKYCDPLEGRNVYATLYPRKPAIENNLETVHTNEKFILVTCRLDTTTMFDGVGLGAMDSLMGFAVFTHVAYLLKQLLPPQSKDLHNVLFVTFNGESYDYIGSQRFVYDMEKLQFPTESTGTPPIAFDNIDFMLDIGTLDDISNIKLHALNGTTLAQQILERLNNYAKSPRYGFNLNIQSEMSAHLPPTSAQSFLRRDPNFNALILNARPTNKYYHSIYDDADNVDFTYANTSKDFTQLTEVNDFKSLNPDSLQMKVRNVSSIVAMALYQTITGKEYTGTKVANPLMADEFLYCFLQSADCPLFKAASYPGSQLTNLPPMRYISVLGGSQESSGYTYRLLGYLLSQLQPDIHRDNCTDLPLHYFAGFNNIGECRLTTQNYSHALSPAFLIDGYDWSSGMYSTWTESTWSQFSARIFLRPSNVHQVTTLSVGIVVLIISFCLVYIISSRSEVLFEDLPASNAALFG
T1 sequence (Q9VQG2 whole entry partner): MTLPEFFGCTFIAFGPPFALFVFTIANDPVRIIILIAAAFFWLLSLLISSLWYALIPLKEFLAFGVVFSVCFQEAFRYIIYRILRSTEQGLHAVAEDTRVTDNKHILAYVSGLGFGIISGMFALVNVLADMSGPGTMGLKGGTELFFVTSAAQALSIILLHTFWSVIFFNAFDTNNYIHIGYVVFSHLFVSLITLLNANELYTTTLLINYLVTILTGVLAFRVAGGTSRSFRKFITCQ
T1 sequence (Q86BE9 whole entry partner): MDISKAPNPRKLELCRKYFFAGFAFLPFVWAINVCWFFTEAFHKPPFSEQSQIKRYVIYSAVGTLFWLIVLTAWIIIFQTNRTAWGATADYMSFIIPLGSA
Procedure: (§1) For transfection, mini- or midi-prepped plasmid DNA (Qiagen) for each construct was adjusted to a stock concentration 100 ng/μl using a nanophotometer (Implen). For individual transfections a total amount of 200 ng DNA per 96-well plate well was used and always contained 30 ng of lexAop>FLuc2 (test construct reporter) and Act5.1Cp>RLuc (transfection control reporter), respectively. Test constructs (X-NRS-LexA) and TEV protease plasmids were added at 1:1 ratio (equimolarly adjusted to lexAop>FLuc2) to the DNA mixes; each DNA mix was supplemented with empty pBSK-SK+ vector (Stratagene) to 200 ng. S2 cells were cultured in Schneider's Drosophila medium (Invitrogen, Cat. no. 21720-024). Cultures were maintained in an air incubator at 25° C. S2 cells were split and plated into individual wells of a 96-well plate at a concentration of 5×10^5/well on day 0. 24 hours after plating (day 1), cells were transfected with Lipofectamine 2000 (Invitrogen, #11668019) with the suitable 1:1 plasmid/reagent mixture according to manufacturer's instructions and incubated for 48 hours. When induction of the metallothionein-promoter was required, CuSO4 stock medium was added in each well of the experiment to a final concentration of 0.5 mM CuSO4 24 hrs after transfection (day 2).
(§2) Cells were lysed on day 3 (48 hrs after transfection) and luciferase measurements with the Dual-Glo luciferase assay system (Promega) were performed according to the manufacturer's protocol. In brief, the supernatant was removed from each well by aspiration and cells were incubated with 200 μl passive lysis buffer on a shaker at room temperature for 30 min. Lysates were analyzed in 96-well plates with a Victor2 plate reader luminometer (PerkinElmer). Firefly and Renilla luciferase luminescence signals were collected for 10 s. Relative luciferase activities were calculated for each sample individually as principally described in Potter et al. (ref. 23) according to the following formula:
(F/R)Empty=(Σi=1^nFEmpty^i/REmpty^i)/n,
(§3) where n=number of control samples; F=Firefly luciferase luminescence signal; R=Renilla luciferase luminescence signal; Empty=lexAop>FLuc2+Ac5.1p>RLuc+BSK-SK+. Each condition was executed at least in triplicate, the average and SEM were determined for each condition, and statistical significance was evaluated using Student's t test. Plasmids used for transfection in S2 cells were: N^ECN-LexA, N^EGF-LexA, ChiN-Test, pChiN1, pChiN2, pChiN3, lexAop-FLuc2, Ac5.1-RLuc, secTEVp, intraTEVp, pBSK-SK+.

[2] = system: lexAop-FLuc reporter in Drosophila Schneider 2 (S2) cells; test: Luciferase (lexAop-FLuc) reporter assay of NRS sensor constructs in S2 cells; format: cell-based; details: FIG. 9; for reporter activity in luciferase assays: S2 cells
Excerpt: In order to conceptually establish the approach to fuse heterologous ECRs to the Notch^ITS to suppress its proteolytic activation, a sensor protein containing 4 immunoglobulin (Ig) domains of the human CD4 receptor fused to the Notch^ITS was engineered^28 (FIG. 7A).
As a positive control a constitutively active N^ECN-LexA receptor^34 with a constantly exposed S2 cleavage site was included (FIG. 7A,B).
Next, the extracellular CD4 repeats of the sensor protein were replaced with the ECR of an aGPCR, the Latrophilin/ADGRL-homolog CIRL/CG8639 (calcium independent receptor of α-latrotoxin) to enable the NRS to detect the physical dissociation of the NTF-CTF complex within the GAIN domain when appended to the Notch^ITS. Thus, the entire ECR of CIRL (including the GAIN domain, GPS, tethered agonist segment and predicted linker to the 7TM domain) was N-terminally fused to the NRS core (CIRL-NRS-LexA; FIG. 9). […] In order to distinguish between these two possibilities, we mutated the GPS of the sensor at the −2 position of its catalytic triad and replaced the conserved Histidin by an Alanine (FIG. 9) to block GAIN domain self-cleavage and eventual NTF release. […] This set of experiments establishes that the CIRL-NRS-LexA NRS can be used for monitoring the integrity of the NTF-CTF heterodimer clamped by the GAIN domain of CIRL.
as §1
as §2, with “In brief, the supernatant was removed from each well by aspiration and cells were incubated with 200 μl passive lysis buffer on a shaker at room temperature for 30 min.” left out, “formula: […]” for “formula:”
as §3, with “Plasmids used for transfection in S2 cells were: N^ECN-LexA, N^EGF-LexA, ChiN-Test, pChiN1, pChiN2, pChiN3, lexAop-FLuc2, Ac5.1-RLuc, secTEVp, intraTEVp, pBSK-SK+.” left out

[3] = system: Drosophila melanogaster; test: In vivo expression analysis of genomically integrated cirl-NRS sensors (transcriptionally activated mCherry reporter); details: adult animals; for sensor activity (lexAop-mCherry reporter expression): FIG. 11
Excerpt: To test the utility of the NRS sensor principle in vivo, an existing genomic engineering platform^13,35 was used to encode NRS sensors in alleles of the adhesion GPCR cirl/CG8639 of Drosophila melanogaster. This places CIRL-NRS expression under the endogenous regulatory control of the cirl locus (FIG. 10A). The NRS design was adapted to generate minigenes for cirl-NRS-LexA, cirl^H>A-NRS-LexA and cirl-NRS^S3-LexA by fusing the genomic fragment encoding the CIRL-ECR to the NRS-LexA cDNA (FIG. 10A,B). The resulting transgenes were inserted in the cirl gene using phiC31-assisted transformation generating fly stocks expressing the different sensors variants from the cirl locus.
Next, the functionality of CIRL-NRS was further studied in anatomical expression analyses.
To control for potential misexpression inherent to the LexA transcriptional reporter, additional cirl-NRS transgenes alternatively terminating in Ga/4 or QF2 transcription factor cassettes were generated an analysed.

effect on reporter activity ([1]; 10 μM DAPT, S2 cells): abolished reporter activity
reporter activity without DAPT vs. with 10 μM DAPT ([1]; CD4-6TEVs-NRS-LexA construct): 3.6 ×
reporter activity without DAPT vs. with 10 μM DAPT ([1]; CD4-6TEVs-NRS-LexA+intraTEVp): 7.0 ×
reporter activity without DAPT vs. with 10 μM DAPT ([1]; CD4-6TEVs-NRS-LexA+secTEVp): 23.4 ×
reporter activity without DAPT vs. with 10 μM DAPT ([1]; Control): 1.1 ×
reporter activity without DAPT vs. with 10 μM DAPT ([1]; N^ECN-LexA construct): 43.7 ×
reporter activity without DAPT vs. with 10 μM DAPT ([1]; N^EGF-LexA construct): 5.8 ×
Molecule: C[C@H](NC(=O)Cc1cc(F)cc(F)c1)C(=O)N[C@H](C(=O)OC(C)(C)C)c1ccccc1 [DAPT]

B1: CIRL-NRS-LexA: entire ECR of CIRL N-terminally fused to the NRS core; full-length NTF release sensor for dmCIRL (protein)
chain: MKLCILLAVVAFVGLSLGETGFPKSLSVLNSRCAHKQSCGVLAATSMFGDPCPGTHKYLEAHYQCISAAQTSTTTNRPSPPPWVLSNGPPIFGNGSGLIHPPGVGAGAPPPPRLPTLPGVVGISGNPGLFNVPPQHTAVTHSTPSSSTTAVGGGRLKGGATSTTTTKHPAGRHDGLPPPPQLHHHHNHHGEDTASPTKPSSKLPAGGNATSPSNTRILTGVGGSGTDDGTLLTTKSSPNRPPGTAASGSVVPGNGSVVRTINNINLNAAGMSGGDDESKLFCGPTHARNLYWNMTRVGDVNVQPCPGGAAGIAKWRCVLMKRIPDSGYDEYDDDISSTTPAPSGGDCLHNSSSCEPPVSMAHKVNQRLRNFEPTWHPATPDLTQCRSLWLNNLEMRVNQRDSSLISIANDMSEVTSSKTLYGGDMLVTTKIIQTVSEKMMHDKETFPDQRQREAMIMELLHCVVKTGSNLLDESQLSSWLDLNPEDQMRVATSLLTGLEYNAFLLADTIIRERSVVQKVKNILLSVRVLETKTIQSSVVFPDSDQWPLSSDRIELPRAALIDNSEGGLVRIVFAAFDRLESILKPSYDHFDLKSSRSYAILSNDSDVNAGEIQQRLRILNSKVISASLGKGRHIQLSQPITLTLKHLKTENVTNPTCVFWNYIDHAWSANGCSLESTNRTHSVCSCNHLTNFAILMDVVDEHQHSLFTMFDGNMRPRIDTAAKHQLRNDFQIHSVRGIKNPGDEDNGEPPANVKYVITGIILVIIALAFFGMVLSTQRKRSGPPKLKALTARQQEVFDLIRDHISQTGMPPTRAEIAQRLGFRSPNAAEEHLKALARKGVIEIVSGASRGIRLLQEEEEGLPLVGRVAAGEPLLAQQHIEGHYQVDPSLFKPNADFLLRVSGMSMKDIGIMDGDLLAVHKTQDVRNGQVVVARIDDEVTVKRLKKQGNKVELLPENSEFKPIVVDLRQQSFTIEGLAVGVIRNGDWLEFPGIRRPAGIPGDLAPPTDVSLGDELHLDGEDVAMAHADALDDFDLDMLGDGDSPGPGFTPHDSAPYGALDMADFEFEQMFTDALGIDEYGGASRYLDPAFLYKVVSSATMDYKDHDGDYKDHDIDYKDDDDKHRST
modifications: Full-length NTF release sensor for dmCIRL used in Example 2
reporter activity in luciferase assays [2]: high activity
luciferase reporter activity, fold difference ([2]; vs. Cirl-NRS^S3-LexA): 23.7 ×
luciferase reporter activity, fold difference ([2]; vs. Cirl^H>A-NRS-LexA): 148.8 ×
sensor activity (lexAop-mCherry reporter expression) [3]: strong expression in the eye, proboscis and leg neurons
expression pattern with matching reporter transgenes ([3]; FIG. 12): strong activation

B2: CIRL-NRS^S3-LexA: NTF release sensor for dmCIRL, S3 cleavage site mutated (disabled γ-secretase recognition) (protein)
chain: B1 chain with V773K
modifications: Full-length NTF release sensor for dmCIRL (S3 cleavage site mutated)
reporter activity in luciferase assays [2]: no reporter activity
sensor activity (lexAop-mCherry reporter expression) [3]: completely abrogated

B3: CIRL^H>A-NRS-LexA: NTF release sensor for dmCIRL, GPS cleavage site mutated (His to Ala at −2) (protein)
chain: B1 chain with H688A
modifications: Full-length NTF release sensor for dmCIRL (GPS cleavage site mutated)
reporter activity in luciferase assays [2]: no reporter activity
sensor activity (lexAop-mCherry reporter expression) [3]: abrogated NRS activation
